Source: US20070166710A1, “Methods for inhibiting adipogenesis and for treating type 2 diabetes” (priority 2003, published 2007)

Columns and labels:
[1] = molecular target: T1, HA-Akt (human Akt1 fused to an N-terminal HA-tag, expressed from pCMV-HA-Akt) (human, UniProt P31749 1-480); test: co-immunoprecipitation from transfected HEK/293 cells (anti-HA IP, Western blot for Foxa-2; the reverse anti-Foxa-2 IP also coprecipitated Akt)
T1 construct: Expressed in transfected HEK/293 or HepG2 cells; The methods also mention Akt2 for HEK/293 transfections, but pCMV-HA-Akt is defined as HA-Akt1; also called HA-Akt1; pCMV-HA-Akt-1; not shown: N-terminal HA-tag
T1 sequence (P31749 whole entry, the tested form may be a part): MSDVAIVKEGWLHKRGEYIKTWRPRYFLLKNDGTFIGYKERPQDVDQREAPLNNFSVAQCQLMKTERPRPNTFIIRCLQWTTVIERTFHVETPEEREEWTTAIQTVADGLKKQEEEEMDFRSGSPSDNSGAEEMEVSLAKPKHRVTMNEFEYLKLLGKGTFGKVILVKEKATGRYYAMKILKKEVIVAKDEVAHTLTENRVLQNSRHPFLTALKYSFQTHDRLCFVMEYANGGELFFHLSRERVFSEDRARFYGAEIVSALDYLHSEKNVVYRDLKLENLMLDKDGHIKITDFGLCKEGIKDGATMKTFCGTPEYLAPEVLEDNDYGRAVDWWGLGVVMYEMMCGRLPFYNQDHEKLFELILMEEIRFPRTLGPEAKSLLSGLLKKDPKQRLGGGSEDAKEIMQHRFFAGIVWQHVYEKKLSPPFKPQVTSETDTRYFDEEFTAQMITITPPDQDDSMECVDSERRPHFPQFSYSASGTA

[2] = molecular target: T1, HA-Akt (human Akt1 fused to an …); test: co-immunoprecipitation from transfected HEK/293 cells (anti-HA IP; the reverse anti-Foxa-2 IP gave the same result)

| Binder | binding result [1] | binding result [2] |
| --- | --- | --- |
| Foxa-2T156A (other, rat, UniProt P32182 1-458, looked up, Phosphorylation-deficient mutant; also called TI56A; Foxa-2TI56A) MLGAVKMEGHEPSDWSSYYAEPEGYSSVSNMNASLGMNGMNTYMSMSAAAMGSGSGNMSAGSMNMSSYVGAGMSPSLAGMSPGAGAMAGMSGSAGAAGVAGMGPHLSPSLSPLGGQAAGAMGGLAPYANMNSMSPMYGQAGLSRARDPKTYRRSYAHAKPPYSYISLITMAIQQSPNKMLTLSEIYQWIMDLFPFYRQNQQRWQNSIRHSLSFNDFLKVPRAPDKPGKGSFWTLHPDSGNMFENGCYLRRQKRFKCENELALKEAAGAGSGGGKKTAPGTQASQVQLGEAAGSASETPAGTESPHSSASPCQEHKRGGLSELKGTPASALSPPEPAPSPGQQQQAAAHLLGPPHHPGLPPEAHLKPEHHYAFNHPFSINNLMSSEQQHHHSHHHHQPHKMDLKTYEQVMHYPGGYGSPMPGSLAMGPVTNKAGLDASPLAADTSYYQGVYSRPIMNSS | binds |  |
| Foxa-2R153K (other, rat, UniProt P32182 1-458, looked up) MLGAVKMEGHEPSDWSSYYAEPEGYSSVSNMNASLGMNGMNTYMSMSAAAMGSGSGNMSAGSMNMSSYVGAGMSPSLAGMSPGAGAMAGMSGSAGAAGVAGMGPHLSPSLSPLGGQAAGAMGGLAPYANMNSMSPMYGQAGLSRARDPKTYRKSYTHAKPPYSYISLITMAIQQSPNKMLTLSEIYQWIMDLFPFYRQNQQRWQNSIRHSLSFNDFLKVPRAPDKPGKGSFWTLHPDSGNMFENGCYLRRQKRFKCENELALKEAAGAGSGGGKKTAPGTQASQVQLGEAAGSASETPAGTESPHSSASPCQEHKRGGLSELKGTPASALSPPEPAPSPGQQQQAAAHLLGPPHHPGLPPEAHLKPEHHYAFNHPFSINNLMSSEQQHHHSHHHHQPHKMDLKTYEQVMHYPGGYGSPMPGSLAMGPVTNKAGLDASPLAADTSYYQGVYSRPIMNSS |  | no binding |
